In US20060178308A1:

T1: recombinant human FHp43, P08603
T1 chain: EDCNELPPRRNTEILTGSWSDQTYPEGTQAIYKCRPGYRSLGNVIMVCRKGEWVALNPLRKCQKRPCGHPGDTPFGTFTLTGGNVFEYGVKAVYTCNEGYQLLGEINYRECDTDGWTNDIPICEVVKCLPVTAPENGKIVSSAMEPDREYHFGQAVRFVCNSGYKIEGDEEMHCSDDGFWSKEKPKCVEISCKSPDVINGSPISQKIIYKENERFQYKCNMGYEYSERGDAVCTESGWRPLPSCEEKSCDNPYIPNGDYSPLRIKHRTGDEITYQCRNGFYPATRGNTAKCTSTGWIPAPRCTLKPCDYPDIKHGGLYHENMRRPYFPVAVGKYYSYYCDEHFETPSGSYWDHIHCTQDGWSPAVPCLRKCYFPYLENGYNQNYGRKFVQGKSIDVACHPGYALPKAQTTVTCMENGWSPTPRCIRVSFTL

T2: truncated recombinant rat factor H protein SCR1-7
T2 chain: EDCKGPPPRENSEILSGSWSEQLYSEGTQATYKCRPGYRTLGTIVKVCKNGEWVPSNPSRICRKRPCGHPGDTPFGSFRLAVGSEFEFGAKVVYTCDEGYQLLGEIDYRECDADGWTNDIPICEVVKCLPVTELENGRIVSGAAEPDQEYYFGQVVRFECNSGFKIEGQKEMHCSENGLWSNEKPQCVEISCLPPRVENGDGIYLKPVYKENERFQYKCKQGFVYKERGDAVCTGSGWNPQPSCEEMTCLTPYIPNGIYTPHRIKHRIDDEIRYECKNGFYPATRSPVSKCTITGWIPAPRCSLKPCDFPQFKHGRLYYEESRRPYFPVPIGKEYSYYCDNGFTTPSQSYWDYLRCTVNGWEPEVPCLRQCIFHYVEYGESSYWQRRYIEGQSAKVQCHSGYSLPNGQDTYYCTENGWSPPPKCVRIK

B1: human Factor I (protein)
chain: KVTYTSQEDLVEKKCLAKKYTHLSCDKVFCQPWQRCIEGTCVCKLPYQCPKNGTAVCATNRRSFPTYCQQKSLECLHPGTKFLNNGTCTAEGKFSVSLKHGNTDSEGIVEVKLVDQDKTMFICKSSWSMREANVACLDLGFQQGADTQRRFKLSDLSINSTECLHVHCRGLETSLAECTFTKRRTMGYQDFADVVCYTQKADSPMDDFFQCVNGKYISQMKACDGINDCGDQSDELCCKACQGKGFHCKSGVCIPSQYQCNGEVDCITGEDEVGCAGFASVTQEETEILTADMDAERRRIKSLLPKLSCGVKNRMHIRRKRIVGGKRAQLGDLPWQVAIKDASGITCGGIYIGGCWILTAAHCLRASKTHRYQIWTTVVDWIHPDLKRIVIEYVDRIIFHENYNAGTYQNDIALIEMKKDGNKKDCELPRSIPACVPWSPYLFQPNDTCIVSGWGREKDNERVFSLQWGEVKLISNCSKFYGNRFYEKEMECAGTYDGSIDACKGDSGGPLVCMDANNVTYVWGVVSWGENCGKPEFPGVYTKVANYFDWISYHVGRPFISQYNV
B2: rat Factor I (protein)
chain: KNTPASGQPQEDLVEQKCLLKNYTHHSCDKVFCQPWQKCIEGTCACKLPYQCPKAGTPVCATNGRGYPTYCHLKSFECLHPEIKFSNNGTCTAEEKFNVSLIYGSTDTEGIVQVKLVDQDEKMFICKNSWSTVEANVACFDLGFPLGVRDIQGRFNIPVNHKINSTECLHVRCQGVETSLAECTFTKKSSKAPHGLAGVVCYTQDADFPTSQSFQCVNGKRIPQEKACDGVNDCGDQSDELCCKGCRGQAFLCKSGVCIPNQRKCNGEVDCITGEDESGCEEDKKNKIHKGLARSDQGGETEIETEETEMLTPDMDTERKRIKSLLPKLSCGVKRNTHIRRKRVVGGKPAEMGDYPWQVAIKDGDRITCGGIYIGGCWILTAAHCVRPSRYRNYQVWTSLLDWLKPNSQLAVQGVSRVVVHEKYNGATYQNDIALVEMKKHPGKKECELINSVPACVPWSPYLFQPNDRCIISGWGREKDNQKVYSLRWGEVDLIGNCSRFYPGRYYEKEMQCAGTSDGSIDACKGDSGGPLVCKDVNNVTYVWGIVSWGENCGKPEFPGVYTRVASYFDWISYYVGRPLVSQYNV

Assays:
[1] = target: T1, recombinant human FHp43, P08603
[2] = target: T2, truncated recombinant rat factor H …

Protein	cofactor activity (43 kDa a' cleavage band of the C3b alpha-chain, SDS-PAGE/autoradiography); concentration of FHp43 in the assay [1]	cofactor activity (43 kDa a' cleavage band of the C3b alpha-chain, SDS-PAGE/autoradiography); concentration of rat FHSCR1-7 in the assay [2]
B1	exhibit cofactor activity even at low concentrations (10 mM) when incubated with C3b and factor I of the corresponding species	–
B2	–	exhibit cofactor activity even at low concentrations (10 mM) when incubated with C3b and factor I of the corresponding species
